These are literature values, as cited in paper PMC6667139.

The data set has as its target TGFβ receptor I and II (Homo sapiens) (UniProt P36897).

Sequence of TGFβ (P01137 279-390): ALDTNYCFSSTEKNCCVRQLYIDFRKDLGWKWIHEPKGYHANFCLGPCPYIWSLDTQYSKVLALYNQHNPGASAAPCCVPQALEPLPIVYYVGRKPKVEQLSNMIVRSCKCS
Sequence of TGFβ receptor I and II (Homo sapiens) (P36897 34-126, chain 1 of 2): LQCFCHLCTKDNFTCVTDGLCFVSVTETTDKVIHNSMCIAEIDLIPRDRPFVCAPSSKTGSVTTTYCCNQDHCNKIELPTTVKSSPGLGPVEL
Sequence of TGFβ receptor I and II (Homo sapiens) (partner, as listed by the source, chain 2 of 2): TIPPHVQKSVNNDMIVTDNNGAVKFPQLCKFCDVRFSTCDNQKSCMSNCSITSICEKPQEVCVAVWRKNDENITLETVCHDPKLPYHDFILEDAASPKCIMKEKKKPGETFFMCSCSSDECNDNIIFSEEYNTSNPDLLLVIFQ

Regarding TGFβ (from UniProt P01137), the Kd (usually the equilibrium constant for the complex coming apart) is 0.05 nM.
